The test concerns the target T1, T7-epitope tagged bovine β1 integrin (bovine, UniProt P53712 21-798).
T1 construct: mature; Expressed in HEK293 cells and detected in lysates with anti-T7 antibody; also called T7-β1 integrin; T7 tagged β1; not shown: le
Nature of the test: co-immunoprecipitation with anti-HSV antibody, anti-T7 Western blot (FIG. 5B panel c). The method, then:
16K derivatives were cotransfected with T7 tagged β1 integrin into HEK293 cells. Integrin expression was assessed by Western blot analysis of RIPA lysates probed with anti-T7 antibody (panel a), and glycosylation by GlcNAc-TV was assessed by incubating extracts with agarose-conjugated L-PHA and analysing recovered proteins with anti-T7 antibody (panel b). Proteins interacting with 16K or 16K mutants were isolated by immunoprecipitation using anti-HSV antibody followed by agarose conjugated protein A, and recovery of T7-β1 integrin monitored by Western blot analysis using anti-T7 antibody (panel c).
RIPA lysates made from HEK293 cells transiently transfected with pXJ41-T7-β1 were resolved on 8% SDS-PAGE, transferred to nitrocellulose, and probed with anti-T7 antibody. Alternatively, lysates were treated with endoglycosidase H (2 units) or glycopeptidase F and incubated at 37° C. overnight in the manufacturer's (Calbiochem) recommended buffers. Agarose conjugated L-PHA and ConA were used to isolate β1-6 branched and high mannose forms of β1 integrin respectively. Lysates made from cells co-transfected with HSV tagged 16K were treated with anti-HSV antibody and agarose-conjugated protein A and recovered complexes were analysed by Western blot as above. […]
(In general: A western blot detects proteins with antibodies after separation by electrophoresis.)

T1 sequence (P53712 21-798): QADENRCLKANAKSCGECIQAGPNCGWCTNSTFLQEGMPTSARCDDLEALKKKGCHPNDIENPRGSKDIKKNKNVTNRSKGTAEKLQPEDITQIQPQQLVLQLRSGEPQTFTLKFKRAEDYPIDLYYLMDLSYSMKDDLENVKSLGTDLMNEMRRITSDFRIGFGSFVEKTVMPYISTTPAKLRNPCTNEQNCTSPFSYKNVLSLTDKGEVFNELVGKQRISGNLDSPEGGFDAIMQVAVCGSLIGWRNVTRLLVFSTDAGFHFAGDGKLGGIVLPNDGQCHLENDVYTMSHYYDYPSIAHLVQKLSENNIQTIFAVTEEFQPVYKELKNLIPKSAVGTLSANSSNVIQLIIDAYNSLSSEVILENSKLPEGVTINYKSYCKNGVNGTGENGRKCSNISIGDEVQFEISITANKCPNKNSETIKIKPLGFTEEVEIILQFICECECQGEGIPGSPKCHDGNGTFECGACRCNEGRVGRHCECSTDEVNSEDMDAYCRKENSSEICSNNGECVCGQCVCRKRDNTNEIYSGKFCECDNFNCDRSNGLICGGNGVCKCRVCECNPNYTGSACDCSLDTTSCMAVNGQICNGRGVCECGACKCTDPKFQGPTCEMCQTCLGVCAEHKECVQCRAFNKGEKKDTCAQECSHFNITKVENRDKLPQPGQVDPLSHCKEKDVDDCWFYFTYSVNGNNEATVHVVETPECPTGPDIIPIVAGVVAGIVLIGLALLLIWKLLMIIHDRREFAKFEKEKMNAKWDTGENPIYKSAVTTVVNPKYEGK

B1: HSV-tagged 16K derivative α2 (helix 2, amino acids 35-88) (other, not shown: small tags and cut ends)
chain: AKSGTGIAAMSVMRPEQIMKSIIPVVMAGIIAIYGLVVAVLIANSLNDDISLYK
In the case of B1, the binding result is listed as “no binding”.

B2: HSV-tagged 16K derivative α4 (helix 4, amino acids 111-156) (other, not shown: small tags and cut ends)
chain: GIVGDAGVRGTAQQPRLFVGMILILIFAEVLGLYGLIVALILSTK
With B2, the binding result is given as “no binding”.

The record behind these values is patent publication US20030181369A1 (published 2003).
